Experimental data taken from paper PMC10656745 (ACS synthetic biology, 2022).

Target: the molecule itself
Assay: native gel or EMSA

B1: wild-type GstA (glutathione S-transferase, PP_1162) of Pseudomonas putida KT2440 (enzyme, UniProt Q88NP5 1-209, looked up)
chain: MSNPIKLYNFPKSGHAHRIELMLSLLNLPTELVFVDLAKGAHKQPDFLALNPFGQVPVIDDNGTVIADSNAILVYLAKKYDNGTWLPEEPAAAARVQRWLSVAAGPLAFGPAAARLVTVFGASFNTDEVISRAHTLLKVIDAELANTPFLTGSTPTIADIANYSYIAHAPEGNVSLEPYANVRNWLARIEALPRFVPMPRTVIGLQTHA
  stoichiometry N: 2
